Measurements taken from patent WO2020241660A1 (dated 2020).

Target: T1, peptide consisting of amino acid residues 44-72 of the human eIF5A protein (human, UniProt P63241 44-72)
T1 construct: range 44-72; also called human eIF5A (44-72) peptide
Experiment: ELISA, screening of hybridoma antibodies on the peptide

T1 sequence (P63241 44-72 limits assumed): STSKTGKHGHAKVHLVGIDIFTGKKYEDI

- binding result: binds
B1: anti-ORAIP antibody (clone YSP5-45-36) (antibody, V domains shown)
VH: EVKLVESGGGLVQPGGSLRLSCATSGFTFTDYYMSWARQPPGKALEWLGFIRNKANGYTTEYSASVKGRFTISRDNSLGILYLQMNTLRPEDSATYYCARNYYGTSFSWFAYWGQGTLVTVSA
VL: MTQTPLSLSVSLGDQASISCRSSQSIVHFNGNTYLEWYLQKPGQSPKLLIYKVSSRFSGVPDRFSGSGSGTDFTLKISRVEAEDLGVYYCFQGSHVPPTFGGGTKLEIK
notes: Mouse monoclonal antibody from a hybridoma (mouse IgG H and L chain primers were used for cloning); also called neutralizing antibody against secretory eIF5A
